Legend:
Assay in all cases: FRET or BRET; FRET-FLIM in nuclei of co-infiltrated N. benthamiana leaves (with P19), 48 h; SPT-EGFP as donor, RFP fusions as acceptors; with or without co-expressed SEC-3xHA or SPY-3xHA; at least 60 nuclei per condition
[1] = biological target: T1, INDEHISCENT (IND) fused to RFP (p35S:IND-RFP) (Arabidopsis thaliana, UniProt O81313 1-198); conditions: partners not purified
T1 construct: INDEHISCENT (IND), bHLH transcription factor of Arabidopsis thaliana; source: N. benthamiana leaves, Agrobacterium-infiltrated, in nuclei of the leaf cells
T1 sequence (looked up): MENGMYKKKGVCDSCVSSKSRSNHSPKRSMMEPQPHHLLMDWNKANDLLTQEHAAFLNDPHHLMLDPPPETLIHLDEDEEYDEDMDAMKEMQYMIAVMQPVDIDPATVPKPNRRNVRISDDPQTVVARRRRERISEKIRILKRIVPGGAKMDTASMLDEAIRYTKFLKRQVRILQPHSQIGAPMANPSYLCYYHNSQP

[2] = biological target: T2, HECATE 1 (HEC1) fused to RFP (p35S:HEC1-RFP) (Arabidopsis thaliana, UniProt Q9FHA7 1-241); conditions: partners not purified
T2 construct: HECATE 1 (HEC1), bHLH transcription factor of Arabidopsis thaliana; source: N. benthamiana leaves, Agrobacterium-infiltrated, in nuclei of the leaf cells
T2 sequence (looked up): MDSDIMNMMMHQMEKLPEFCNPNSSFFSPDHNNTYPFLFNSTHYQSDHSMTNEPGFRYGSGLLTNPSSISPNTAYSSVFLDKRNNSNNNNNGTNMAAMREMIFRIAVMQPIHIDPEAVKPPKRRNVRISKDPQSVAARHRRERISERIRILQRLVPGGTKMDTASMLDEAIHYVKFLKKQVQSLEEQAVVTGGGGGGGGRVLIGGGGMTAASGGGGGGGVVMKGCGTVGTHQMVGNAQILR

[3] = biological target: the molecule itself

FRET efficiency [1]: 9.6% | FRET efficiency [2]: 7.4%
B1: SPATULA (SPT) fused to EGFP (p35S:SPT-GFP); second copy in the homodimer test fused to RFP (p35S:SPT-RFP) (natural protein, Arabidopsis thaliana, UniProt Q9FUA4 1-373, looked up)
chain: MISQREEREEKKQRVMGDKKLISSSSSSSVYDTRINHHLHHPPSSSDEISQFLRHIFDRSSPLPSYYSPATTTTTASLIGVHGSGDPHADNSRSLVSHHPPSDSVLMSKRVGDFSEVLIGGGSGSAAACFGFSGGGNNNNVQGNSSGTRVSSSSVGASGNETDEYDCESEEGGEAVVDEAPSSKSGPSSRSSSKRCRAAEVHNLSEKRRRSRINEKMKALQSLIPNSNKTDKASMLDEAIEYLKQLQLQVQMLTMRNGINLHPLCLPGTTLHPLQLSQIRPPEATNDPLLNHTNQFASTSNAPEMINTVASSYALEPSIRSHFGPFPLLTSPVEMSREGGLTHPRLNIGHSNANITGEQALFDGQPDLKDRIT
notes: SPATULA (SPT) of Arabidopsis thaliana; In the SPT;SPT test one copy carried EGFP (FRET donor) and the other RFP (acceptor) in place of EGFP; both copies are written as this one molecule; also called SPT-EGFP; source: N. benthamiana leaves, Agrobacterium-infiltrated, in nuclei of the leaf cells
FRET efficiency [3]: 5.7%

Reference: publication doi:10.1101/2023.04.28.538690, “Post-translational modification of SPATULA by SECRET AGENT and SPINDLY promotes organ symmetry transition at the gynoecium apex” (bioRxiv, 2023)
